In patent US7803762B1, “Ready-to-use bivalirudin compositions” (The Medicines Company, priority 2009, dated 2010):

Experiment: Investigation of pH of bivalirudin solutions (degradation at pH 2-6)
Type: physicochemical
Conditions: 1 mg/ml aqueous solution
Procedure: The degradation pathway of bivalirudin was investigated by preparing aqueous solutions at 1 mg/ml of bivalirudin at pH 2, 3, 4, 5 and 6 (Table 1). […] The excessive degradation observed was attributed to a change in pH during storage wherein the final pH of the bivalirudin compositions was about 7.

D-Phenylalanyl-L-Prolyl-L-Arginyl-L-Prolyl-Glycyl-Glycyl-Glycyl-Glycyl-L-Asparagyl-Glycyl-L-Aspartyl-L-Phenylalanyl-L-Glutamyl-L-Glutamyl-L-Isoleucyl-L-Prolyl-L-Glutamyl-L-Glutamyl-L-Tyrosyl-L-Leucine trifluoroacetate (salt) hydrate [bivalirudin]
Asp^9-Bivalirudin (pH 2, 25° C./1 month): 2.58 % AUC
Total Degradants (pH 2, 25° C./1 month): 64.8 % AUC
Asp^9-Bivalirudin (pH 2, Initial): 0.45 % AUC
Total Degradants (pH 2, Initial): 0.6 % AUC
Asp^9-Bivalirudin (pH 3, 25° C./1 month): 2.71 % AUC
Total Degradants (pH 3, 25° C./1 month): 37.7 % AUC
Asp^9-Bivalirudin (pH 3, Initial): 0.76 % AUC
Total Degradants (pH 3, Initial): 0.9 % AUC
Asp^9-Bivalirudin (pH 4, 25° C./1 month): 1.26 % AUC
Total Degradants (pH 4, 25° C./1 month): 51.1 % AUC
Asp^9-Bivalirudin (pH 4, Initial): 0.59 % AUC
Total Degradants (pH 4, Initial): 3.1 % AUC
Asp^9-Bivalirudin / Total Degradants (pH 5, 25° C./1 month): complete degradation
Asp^9-Bivalirudin (pH 5, Initial): 0.84 % AUC
Total Degradants (pH 5, Initial): 3.4 % AUC
Asp^9-Bivalirudin / Total Degradants (pH 6, 25° C./1 month): complete degradation
Asp^9-Bivalirudin (pH 6, Initial): 1.19 % AUC
Total Degradants (pH 6, Initial): 4.7 % AUC
